The text below walks through data of publication PMC3547798, “Binding of Nucleoid-Associated Protein Fis to DNA Is Regulated by DNA Breathing Dynamics”.

Series [1] deals with T1, Fis (Escherichia coli DH5alpha, UniProt P0A6R3 1-98). Briefly: EMSA; significant complex at 0.25 uM Fis, stronger than FIS2; salmon sperm DNA; 20 mM HEPES (pH not stated), 150 mM NaCl, 500 ug/mL BSA, 1 mM DTT, 0.1 mM EDTA, 0.5-1 ug/ul salmon sperm DNA, room temperature 30 min; DNA 100 nM or 500 nM-1 uM (Methods); 6% gel, 0.5x TBE. Particulars: protein: recombinant; tags: N-terminal GST (pGEX-KG); label: 5'-biotin on forward strand; blunt. A general note: In EMSA bound probe runs differently from free probe, usually more slowly.

In series [2] the target is T1, Fis. The series can be described thus: EMSA; complex detectable at 0.25-0.50 uM Fis; salmon sperm DNA; 20 mM HEPES (pH not stated), 150 mM NaCl, 500 ug/mL BSA, 1 mM DTT, 0.1 mM EDTA, 0.5-1 ug/ul salmon sperm DNA, room temperature 30 min; DNA 100 nM or 500 nM-1 uM (Methods); 6% gel, 0.5x TBE. As to conditions: protein: recombinant; tags: N-terminal GST (pGEX-KG); label: 5'-biotin on forward strand; blunt.

T1 sequence (P0A6R3 whole entry): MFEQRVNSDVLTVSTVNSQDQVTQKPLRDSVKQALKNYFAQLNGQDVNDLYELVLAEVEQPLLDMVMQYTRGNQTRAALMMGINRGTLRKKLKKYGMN

B1: FIS2m2 (dsDNA)
DNA 1: AAATTTGTTTGGGCGCTGAGCAAATTT
DNA 2: AAATTTGCTCAGCGCCCAAACAAATTT
modifications: O6-methylguanine at nt 12 and 15 of strand 1 (positions -2, +1)
B1: in the series with Fis [1], the binding result was “binds”.

B2: FIS1 (dsDNA)
DNA 1: AAATTTGTTTGAATTTTGAGCAAATTT
DNA 2: AAATTTGCTCAAAATTCAAACAAATTT
For B2, the binding result with Fis [2] is given as “binds”.
